Starred links: 1 amine or outer side, 2 acyl side, 3 side chain; linkers in the order of their positions; H or OH if unused. Non-standard residues stand in square brackets, D forms with d. Groups on a side chain read outwards from the residue. No end group written: not given here. *: point of attachment. Trp(5-Br) = N[C@@H](Cc1c[nH]c2ccc(Br)cc12)C(=O)O; Bip = N[C@@H](Cc1ccc(-c2ccccc2)cc1)C(=O)O; C18 diacid = O=C(O)CCCCCCCCCCCCCCCCC(=O)*; γGlu = O=C(O)[C@H](CCC(=O)[*:2])N[*:1]; αMeF = C[C@](N)(Cc1ccccc1)C(=O)O; AEEA = NCCOCCOCC(=O)O; Aib = CC(C)(N)C(=O)O
How the values were obtained:
[1] = biological target: human GLP-1 receptor (hGLP-1R) (human, UniProt P43220 24-463); test: cell-based or functional assay
[2] = biological target: human glucagon receptor (hGCGR) (human, UniProt P47871 26-477); test: cell-based or functional assay
Chain of human glucagon receptor (hGCGR) (P47871 26-477): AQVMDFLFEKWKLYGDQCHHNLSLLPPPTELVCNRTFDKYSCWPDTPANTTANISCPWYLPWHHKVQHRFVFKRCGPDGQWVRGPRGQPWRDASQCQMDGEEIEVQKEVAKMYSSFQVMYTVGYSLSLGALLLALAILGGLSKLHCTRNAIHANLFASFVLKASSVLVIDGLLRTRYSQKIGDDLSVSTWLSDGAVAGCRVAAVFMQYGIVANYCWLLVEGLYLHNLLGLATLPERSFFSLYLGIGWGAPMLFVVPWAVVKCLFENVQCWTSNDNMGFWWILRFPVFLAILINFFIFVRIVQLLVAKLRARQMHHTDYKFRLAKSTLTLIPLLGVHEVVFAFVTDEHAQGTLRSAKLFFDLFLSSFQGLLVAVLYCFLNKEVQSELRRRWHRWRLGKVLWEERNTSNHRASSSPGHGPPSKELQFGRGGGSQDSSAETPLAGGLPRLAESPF

Row | hGLP-1R EC50 (pM) [1] | hGluc-R EC50 (pM) [2] | Binder
1 | 1380 pM | 1160 pM | H[Aib]QGTFTSDVSK[αMeF]LDSK([AEEA-AEEA-γGlu-C18 diacid])RAQDFVR[Bip]LL[Aib]E-OH (N-terminus assumed; SMILES CC(C)C[C@H](NC(=O)[C@H](Cc1ccc(-c2ccccc2)cc1)NC(=O)[C@H](CCCNC(=N)N)NC(=O)[C@@H](NC(=O)[C@H](Cc1ccccc1)NC(=O)[C@H](CC(=O)O)NC(=O)[C@H](CCC(N)=O)NC(=O)[C@H](C)NC(=O)[C@H](CCCNC(=N)N)NC(=O)[C@H](CCCCNC(=O)COCCOCCNC(=O)COCCOCCNC(=O)CC[C@H](NC(=O)CCCCCCCCCCCCCCCCC(=O)O)C(=O)O)NC(=O)[C@H](CO)NC(=O)[C@H](CC(=O)O)NC(=O)[C@H](CC(C)C)NC(=O)[C@](C)(Cc1ccccc1)NC(=O)[C@H](CCCCN)NC(=O)[C@H](CO)NC(=O)[C@@H](NC(=O)[C@H](CC(=O)O)NC(=O)[C@H](CO)NC(=O)[C@@H](NC(=O)[C@H](Cc1ccccc1)NC(=O)[C@@H](NC(=O)CNC(=O)[C@H](CCC(N)=O)NC(=O)C(C)(C)NC(=O)[C@@H](N)Cc1c[nH]cn1)[C@@H](C)O)[C@@H](C)O)C(C)C)C(C)C)C(=O)N[C@@H](CC(C)C)C(=O)NC(C)(C)C(=O)N[C@@H](CCC(=O)O)C(=O)O) [Peptide 432]
2 | 153 pM | 294 pM | H[Aib]QGTFTSDVSK[αMeF]LDSK([AEEA-AEEA-γGlu-C18 diacid])RAQDFVR[Trp(5-Br)]LL[Aib]E-OH (N-terminus assumed; SMILES CC(C)C[C@H](NC(=O)[C@H](Cc1c[nH]c2ccc(Br)cc12)NC(=O)[C@H](CCCNC(=N)N)NC(=O)[C@@H](NC(=O)[C@H](Cc1ccccc1)NC(=O)[C@H](CC(=O)O)NC(=O)[C@H](CCC(N)=O)NC(=O)[C@H](C)NC(=O)[C@H](CCCNC(=N)N)NC(=O)[C@H](CCCCNC(=O)COCCOCCNC(=O)COCCOCCNC(=O)CC[C@H](NC(=O)CCCCCCCCCCCCCCCCC(=O)O)C(=O)O)NC(=O)[C@H](CO)NC(=O)[C@H](CC(=O)O)NC(=O)[C@H](CC(C)C)NC(=O)[C@](C)(Cc1ccccc1)NC(=O)[C@H](CCCCN)NC(=O)[C@H](CO)NC(=O)[C@@H](NC(=O)[C@H](CC(=O)O)NC(=O)[C@H](CO)NC(=O)[C@@H](NC(=O)[C@H](Cc1ccccc1)NC(=O)[C@@H](NC(=O)CNC(=O)[C@H](CCC(N)=O)NC(=O)C(C)(C)NC(=O)[C@@H](N)Cc1c[nH]cn1)[C@@H](C)O)[C@@H](C)O)C(C)C)C(C)C)C(=O)N[C@@H](CC(C)C)C(=O)NC(C)(C)C(=O)N[C@@H](CCC(=O)O)C(=O)O) [Peptide 434]
3 | 7.43 pM | 68.8 pM | H[Aib]QGTFTSDVSK[αMeF]LDRK([AEEA-AEEA-γGlu-C18 diacid])RAQDFVRWLV[Aib]E-NH2 (N-terminus assumed; SMILES CC(C)C[C@H](NC(=O)[C@H](Cc1c[nH]c2ccccc12)NC(=O)[C@H](CCCNC(=N)N)NC(=O)[C@@H](NC(=O)[C@H](Cc1ccccc1)NC(=O)[C@H](CC(=O)O)NC(=O)[C@H](CCC(N)=O)NC(=O)[C@H](C)NC(=O)[C@H](CCCNC(=N)N)NC(=O)[C@H](CCCCNC(=O)COCCOCCNC(=O)COCCOCCNC(=O)CC[C@H](NC(=O)CCCCCCCCCCCCCCCCC(=O)O)C(=O)O)NC(=O)[C@H](CCCNC(=N)N)NC(=O)[C@H](CC(=O)O)NC(=O)[C@H](CC(C)C)NC(=O)[C@](C)(Cc1ccccc1)NC(=O)[C@H](CCCCN)NC(=O)[C@H](CO)NC(=O)[C@@H](NC(=O)[C@H](CC(=O)O)NC(=O)[C@H](CO)NC(=O)[C@@H](NC(=O)[C@H](Cc1ccccc1)NC(=O)[C@@H](NC(=O)CNC(=O)[C@H](CCC(N)=O)NC(=O)C(C)(C)NC(=O)[C@@H](N)Cc1c[nH]cn1)[C@@H](C)O)[C@@H](C)O)C(C)C)C(C)C)C(=O)N[C@H](C(=O)NC(C)(C)C(=O)N[C@@H](CCC(=O)O)C(N)=O)C(C)C) [Peptide 436]
4 | 44.6 pM | 194 pM | H[Aib]QGTFTSDVSK[αMeF]LDTK([AEEA-AEEA-γGlu-γGlu-C18 diacid])RAQDFVAWLEA[Aib]G-NH2 (N-terminus assumed; SMILES CC(C)C[C@H](NC(=O)[C@H](Cc1c[nH]c2ccccc12)NC(=O)[C@H](C)NC(=O)[C@@H](NC(=O)[C@H](Cc1ccccc1)NC(=O)[C@H](CC(=O)O)NC(=O)[C@H](CCC(N)=O)NC(=O)[C@H](C)NC(=O)[C@H](CCCNC(=N)N)NC(=O)[C@H](CCCCNC(=O)COCCOCCNC(=O)COCCOCCNC(=O)CC[C@H](NC(=O)CC[C@H](NC(=O)CCCCCCCCCCCCCCCCC(=O)O)C(=O)O)C(=O)O)NC(=O)[C@@H](NC(=O)[C@H](CC(=O)O)NC(=O)[C@H](CC(C)C)NC(=O)[C@](C)(Cc1ccccc1)NC(=O)[C@H](CCCCN)NC(=O)[C@H](CO)NC(=O)[C@@H](NC(=O)[C@H](CC(=O)O)NC(=O)[C@H](CO)NC(=O)[C@@H](NC(=O)[C@H](Cc1ccccc1)NC(=O)[C@@H](NC(=O)CNC(=O)[C@H](CCC(N)=O)NC(=O)C(C)(C)NC(=O)[C@@H](N)Cc1c[nH]cn1)[C@@H](C)O)[C@@H](C)O)C(C)C)[C@@H](C)O)C(C)C)C(=O)N[C@@H](CCC(=O)O)C(=O)N[C@@H](C)C(=O)NC(C)(C)C(=O)NCC(N)=O) [Peptide 431]

More lines, now with the values behind:

Row | Binder | hGLP-1R EC50 (pM) [1] | hGluc-R EC50 (pM) [2]
5 | H[Aib]QGTFTSDVSK[αMeF]LDKK([AEEA-AEEA-γGlu-C18 diacid])RAQDFVRWLLR[Aib]K-OH (N-terminus assumed; SMILES CC(C)C[C@H](NC(=O)[C@H](Cc1c[nH]c2ccccc12)NC(=O)[C@H](CCCNC(=N)N)NC(=O)[C@@H](NC(=O)[C@H](Cc1ccccc1)NC(=O)[C@H](CC(=O)O)NC(=O)[C@H](CCC(N)=O)NC(=O)[C@H](C)NC(=O)[C@H](CCCNC(=N)N)NC(=O)[C@H](CCCCNC(=O)COCCOCCNC(=O)COCCOCCNC(=O)CC[C@H](NC(=O)CCCCCCCCCCCCCCCCC(=O)O)C(=O)O)NC(=O)[C@H](CCCCN)NC(=O)[C@H](CC(=O)O)NC(=O)[C@H](CC(C)C)NC(=O)[C@](C)(Cc1ccccc1)NC(=O)[C@H](CCCCN)NC(=O)[C@H](CO)NC(=O)[C@@H](NC(=O)[C@H](CC(=O)O)NC(=O)[C@H](CO)NC(=O)[C@@H](NC(=O)[C@H](Cc1ccccc1)NC(=O)[C@@H](NC(=O)CNC(=O)[C@H](CCC(N)=O)NC(=O)C(C)(C)NC(=O)[C@@H](N)Cc1c[nH]cn1)[C@@H](C)O)[C@@H](C)O)C(C)C)C(C)C)C(=O)N[C@@H](CC(C)C)C(=O)N[C@@H](CCCNC(=N)N)C(=O)NC(C)(C)C(=O)N[C@@H](CCCCN)C(=O)O) [Peptide 426] | 7.3 pM | 61.2 pM
6 | H[Aib]QGTFTSDVSK[αMeF]LDSK([AEEA-AEEA-γGlu-C18 diacid])RAQDFVRWLEA[Aib]G-NH2 (N-terminus assumed; SMILES CC(C)C[C@H](NC(=O)[C@H](Cc1c[nH]c2ccccc12)NC(=O)[C@H](CCCNC(=N)N)NC(=O)[C@@H](NC(=O)[C@H](Cc1ccccc1)NC(=O)[C@H](CC(=O)O)NC(=O)[C@H](CCC(N)=O)NC(=O)[C@H](C)NC(=O)[C@H](CCCNC(=N)N)NC(=O)[C@H](CCCCNC(=O)COCCOCCNC(=O)COCCOCCNC(=O)CC[C@H](NC(=O)CCCCCCCCCCCCCCCCC(=O)O)C(=O)O)NC(=O)[C@H](CO)NC(=O)[C@H](CC(=O)O)NC(=O)[C@H](CC(C)C)NC(=O)[C@](C)(Cc1ccccc1)NC(=O)[C@H](CCCCN)NC(=O)[C@H](CO)NC(=O)[C@@H](NC(=O)[C@H](CC(=O)O)NC(=O)[C@H](CO)NC(=O)[C@@H](NC(=O)[C@H](Cc1ccccc1)NC(=O)[C@@H](NC(=O)CNC(=O)[C@H](CCC(N)=O)NC(=O)C(C)(C)NC(=O)[C@@H](N)Cc1c[nH]cn1)[C@@H](C)O)[C@@H](C)O)C(C)C)C(C)C)C(=O)N[C@@H](CCC(=O)O)C(=O)N[C@@H](C)C(=O)NC(C)(C)C(=O)NCC(N)=O) [Peptide 429] | 15 pM | 144 pM
7 | H[Aib]QGTFTSDVSK[αMeF]LDTK([AEEA-AEEA-γGlu-C18 diacid])RARDFVQWLLE[Aib]G (not fully specified (C-terminus)) [Peptide 427] | 12.4 pM | 47.2 pM
8 | H[Aib]QGTFTSDVSK[αMeF]LDTK([AEEA-AEEA-γGlu-γGlu-C18 diacid])RARDFVQWLLE[Aib]G (not fully specified (C-terminus)) [Peptide 428] | 33.1 pM | 10.5 pM
9 | H[Aib]QGTFTSDVSK[αMeF]LDSK([AEEA-AEEA-γGlu-γGlu-C18 diacid])RAQDFVRWLEA[Aib]G-NH2 (N-terminus assumed; SMILES CC(C)C[C@H](NC(=O)[C@H](Cc1c[nH]c2ccccc12)NC(=O)[C@H](CCCNC(=N)N)NC(=O)[C@@H](NC(=O)[C@H](Cc1ccccc1)NC(=O)[C@H](CC(=O)O)NC(=O)[C@H](CCC(N)=O)NC(=O)[C@H](C)NC(=O)[C@H](CCCNC(=N)N)NC(=O)[C@H](CCCCNC(=O)COCCOCCNC(=O)COCCOCCNC(=O)CC[C@H](NC(=O)CC[C@H](NC(=O)CCCCCCCCCCCCCCCCC(=O)O)C(=O)O)C(=O)O)NC(=O)[C@H](CO)NC(=O)[C@H](CC(=O)O)NC(=O)[C@H](CC(C)C)NC(=O)[C@](C)(Cc1ccccc1)NC(=O)[C@H](CCCCN)NC(=O)[C@H](CO)NC(=O)[C@@H](NC(=O)[C@H](CC(=O)O)NC(=O)[C@H](CO)NC(=O)[C@@H](NC(=O)[C@H](Cc1ccccc1)NC(=O)[C@@H](NC(=O)CNC(=O)[C@H](CCC(N)=O)NC(=O)C(C)(C)NC(=O)[C@@H](N)Cc1c[nH]cn1)[C@@H](C)O)[C@@H](C)O)C(C)C)C(C)C)C(=O)N[C@@H](CCC(=O)O)C(=O)N[C@@H](C)C(=O)NC(C)(C)C(=O)NCC(N)=O) [Peptide 430] | 24.4 pM | 160 pM

— patent US20230357348A1 (AstraZeneca / MedImmune, published 2023)
